Laboratory results as given in US20260201038A1 (CELLABMED, published 2026).
Blank lines part the entries; values can stand above or below the molecule they belong to.

Tests used:
[1] = target: B7-H3 on human cancer cells (human) (UniProt Q5ZPR3); assay: cell-based or functional assay
[2] = target: T1, recombinant human 2Ig B7-H3 (human, UniProt Q5ZPR3 29-466); assay: indirect ELISA, antigen coated at 1 ug/mL, anti-human Fc-HRP, absorbance at 450 nm
T1 construct: Bought recombinant protein (R&D Systems); also called 2lg B7-H3
T1 sequence: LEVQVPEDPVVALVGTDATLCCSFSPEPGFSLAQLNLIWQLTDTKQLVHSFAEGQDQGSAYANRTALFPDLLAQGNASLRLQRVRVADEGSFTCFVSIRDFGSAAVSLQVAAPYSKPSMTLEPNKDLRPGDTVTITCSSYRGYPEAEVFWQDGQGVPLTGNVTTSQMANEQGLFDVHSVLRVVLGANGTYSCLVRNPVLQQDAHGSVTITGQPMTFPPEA
Method: (§1) The binding ability of 2D IgG prepared in Example 2 for recombinant B7-H3 protein was investigated by indirect ELISA. For indirect ELISA, recombinant human 4lg B7-H3, recombinant human 2lg B7-H3 and recombinant mouse B7-H3 were diluted respectively to 1 μg/mL in 50 μL of PBS and adsorbed overnight onto a 96-well immunoplate (Corning, USA) by storing at 4° C. After reaction with a buffer solution containing 3% bovine serum albumin at room temperature for 1 hour, followed by washing 3 times with a buffer solution containing 0.5% Tween 20, each well was treated with 50 μL of the antibodies diluted serially (0.0001, 0.0003, 0.001, 0.003, 0.01, 0.03, 0.1, 0.3, 1, 3 and 10 nM). For antigen-antibody binding, the mixture was reacted at room temperature for 2 hours, and then washed 3 times with a buffer solution containing 0.5% Tween 20. After treating each well with 50 μL of anti-human immunoglobulin Fc-HRP antibodies (Jackson Immunoresearch, USA) diluted to 1:3,000, reaction was conducted at room temperature for 1 hour. […] As a result of measuring absorbance at 450 nm using a spectrophotometer (Biotek, USA), it was confirmed that 2D IgG binds to B7-H3, and the binding ability was in the order of 4lg B7-H3, 2lg B7-H3 and mouse B7-H3 (FIG. 2a).

[3] = target: T2, recombinant human 4Ig B7-H3 (human, UniProt Q5ZPR3 29-461, limits assumed); assay: as above
T2 construct: Bought recombinant protein (Sino Biological); also called 4lg B7-H3
T2 sequence: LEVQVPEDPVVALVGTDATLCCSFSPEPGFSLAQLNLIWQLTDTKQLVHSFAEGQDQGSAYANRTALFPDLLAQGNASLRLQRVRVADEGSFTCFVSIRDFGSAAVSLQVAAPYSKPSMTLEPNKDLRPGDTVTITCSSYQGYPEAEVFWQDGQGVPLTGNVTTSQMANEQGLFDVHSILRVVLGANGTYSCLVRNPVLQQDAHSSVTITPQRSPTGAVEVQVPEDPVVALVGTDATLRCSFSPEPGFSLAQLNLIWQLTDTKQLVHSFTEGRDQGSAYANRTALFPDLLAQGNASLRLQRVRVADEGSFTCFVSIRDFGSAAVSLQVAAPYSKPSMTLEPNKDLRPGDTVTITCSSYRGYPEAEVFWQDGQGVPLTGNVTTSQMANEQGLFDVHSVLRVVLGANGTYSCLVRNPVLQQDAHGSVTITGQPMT
Method: as §1

[4] = target: T3, human 4Ig B7-H3 expressed on Raji cells (human) (UniProt Q5ZPR3); assay: flow cytometry on Raji cells expressing 4Ig B7-H3; the vector control Raji cells show < 2%
T3 sequence: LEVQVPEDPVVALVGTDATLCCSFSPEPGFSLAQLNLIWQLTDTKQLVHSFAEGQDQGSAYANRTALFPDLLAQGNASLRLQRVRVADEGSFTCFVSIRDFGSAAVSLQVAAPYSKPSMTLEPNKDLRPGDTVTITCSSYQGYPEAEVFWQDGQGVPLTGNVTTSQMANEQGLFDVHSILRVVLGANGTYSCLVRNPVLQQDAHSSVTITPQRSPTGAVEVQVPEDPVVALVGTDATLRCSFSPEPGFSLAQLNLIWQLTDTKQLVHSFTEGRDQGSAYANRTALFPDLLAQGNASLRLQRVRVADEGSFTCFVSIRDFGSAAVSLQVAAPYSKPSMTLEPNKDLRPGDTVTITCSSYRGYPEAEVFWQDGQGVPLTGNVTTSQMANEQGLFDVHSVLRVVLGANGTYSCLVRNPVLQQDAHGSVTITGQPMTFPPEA

Molecule: enoblituzumab with wild-type Fc (antibody)
T cell-mediated A549 cell-killing effect (GFP fluorescence of A549 cells after 48 h co-culture with activated PBMCs; negative control group = 100) [1]: 77.3

EC50 (read off the curve) [2]: ~0.2 nM | EC50 (read off the curve) [3]: ~0.006 nM
B1: 2D IgG (antibody, V domains shown)
VH: AVTLDESGGGLQTPGGGLSLVCKASGFDFSSYPMVWVRQAPGKGLEYVASINSGGSWTGYGAAVKGRATISRDNGQSTVRLQLNNLRAEDTATYYCARAYGAATIDAWGHGTEVIVSS
VL: ALTQPSSVSANLGGTVKITCSGGSIGYGWYQQKAPGSAPVTVIYYNDRRPSDIPSRFSGSKSGSANTLTITGVQADDEAIYYCGSADSSSTYTGIFGAGTTLTVL
notes: Chicken/human chimeric complete antibody (full-length IgG); also called 2D complete antibody; parent antibody (2D)

% of cells in the positive gate (P3) [4]: > 70%
B2: enoblituzumab (antibody, part only; not given: Constant regions, V domains shown, not shown: another chain or arm of the molecule)
VH: EVQLVESGGGLVQPGGSLRLSCAASGFTFSSFGMHWVRQAPGKGLEWVAYISSDSSAIYYADTVKGRFTISRDNAKNSLYLQMNSLRDEDTAVYYCGRGRENIYYGSRLDYWGQGTTVTVSS
VL: DIQLTQSPSFLSASVGDRVTITCKASQNVDTNVAWYQQKPGKAPKALIYSASYRYSGVPSRFSGSGSGTDFTLTISSLQPEDFATYYCQQYNNYPFTFGQGTKLEIK
